In patent US20240002491A1, “METHODS FOR SELECTING PATIENTS FOR TREATMENT WITH AN NGF ANTAGONIST” (Regeneron Pharmaceuticals, Inc., priority 2022, published 2024):

Columns and labels:
[1] = system: adults with moderate-to-severe chronic pain associated with osteoarthritis (OA) of the knee or hip; assay: FACT OA1 (NCT03161093, R475-OA-1611) Phase 3 trial, WOMAC pain and physical function; assay type: in vivo, human
Description: NCT02683239 (R475-PN-1523, or “FACT LTS”), NCT03161093 (R475-OA-1611, or “FACT OA1”), and NCT03304379 (R475-OA-1688, or “FACT OA2”) each were Phase 3 trials evaluating fasinumab in adults with moderate-to-severe chronic pain associated with osteoarthritis (OA) of the knee or hip. All three of these trials enrolled patients with OA of the knee or hip who had inadequate pain relief with acetaminophen and were intolerant to or had inadequate pain relief with opioids, or were unwilling or unable to take opioids. Complete inclusion and exclusion criteria for the trials are described at clinicaltrials.gov/ct2/show/NCT03161093, clinicaltrials.gov/ct2/show/NCT03304379, and clinicaltrials.gov/ct2/show/NCT02683239.
FACT OA1 and FACT OA2 assessed the efficacy of fasinumab in comparison to nonsteroidal anti-inflammatory drugs (NSAIDs; naproxen, diclofenac, or celecoxib) for treatment of OA. FACT OA1 includes results from a total of 1,801 patients randomized to one of four treatment arms: fasinumab 1 mg SC once every 8 weeks (Q8W) (n=304), fasinumab 1 mg SC once every 4 weeks (Q4W) (n=639), naproxen 500 mg twice daily (n=644), or placebo (n=214). In FACT OA2, patients were randomized into one of six treatment groups: fasinumab 1 mg SC once every 4 weeks (Q4W), fasinumab 3 mg SC once every 4 weeks (Q4W), fasinumab 6 mg SC once every 8 weeks (Q8W), celecoxib 200 mg once daily, diclofenac 75 mg twice daily, or placebo. While the FACT OA2 trial was still ongoing, enrollment into the fasinumab 3 mg Q4W and 6 mg Q8W groups was stopped for safety considerations; patients enrolled in those dose regimens discontinued study drug and entered the post-treatment follow-up period.
Fasinumab patients in both trials also reported improvements in their pain and physical function (WOMAC score) compared to those treated with the highest-approved prescription doses of NSAIDS.

[2] = system: patients with OA of the knee and/or hip; assay: Integrated summary of efficacy (ISE): change in WOMAC pain subscale score at 16 weeks by joint subgroup; assay type: in vivo, human; conditions: 1Q4 and 1Q8 regimens; all joint subgroups; 95% confidence intervals excluded zero only for the 1-2 and 3-4 joint subgroups
Description: The integrated summary of efficacy (ISE) examined the change in WOMAC pain subscale score at 16 weeks in each of the above subgroups and is illustrated in the Forrest plot below (FIG. 4).

[3] = system: patients with OA of the knee and/or hip; assay: ISS post-hoc analysis combining OA joint burden and alkaline phosphatase cut-off (weeks 8-16); assay type: in vivo, human
Description: Both the baseline burden of OA and the change in alkaline phosphatase identify patients with higher risk of AA/DA/JR; these findings are observed only in the fasinumab arms, not the placebo arm, indicating an NGF-specific mechanism. The results raise the possibility of excluding high-risk patients and treating only patients with lower risk of joint-related adverse events, using more than one approach. To understand whether there is an interaction between the two approaches, and to explore a number of potential risk mitigation options, a post-hoc analysis was performed on the ISS data set to examine the impact of alkaline phosphatase within various joint subgroups. Because efficacy was preserved in the 1-2 and 3-4 joint subgroups as discussed above, the rates of AA/DA/JR were examined in overlapping subgroups: patients with 1-2, 1-3 and 1-4 joints with OA at baseline. For each of these subgroups, five potential cut-offs for change in alkaline phosphatase were explored: no change, 5-, 10-, 15- and 20-point change from baseline.
FIGS. 8A-8D show the percentage of patients with AA/DA/JR following exclusion of those who have a change in alkaline phosphatase at or above the designated cut-off at any time between weeks 8 and 16. In each of FIGS. 8A-8D, the X-axis represents overlapping bins of patients that become successively smaller as one looks left to right (percentage of the total population remaining in each bin is shown in the table beneath the graph). […] The next 5 bins to the right show the rates of AA/DA/JR in the patients who remain after excluding those above the designated cut-off for change in alkaline phosphatase. The placebo rate from the total ISS population is expressed as a solid black line.
For each of the joint related adverse events, the burden of OA and change in alkaline phosphatase are complementary from the perspective of risk-reduction. FIGS. 8A, 8C, and 8E show the reduction of risk of JR, AA, and DA, respectively, in patients treated with 1 mg fasinumab Q8W, for patients with different OA burden at different cut-off values for change in alkaline phosphatase. Similarly, FIGS. 8B, 8D, and 8F show the reduction of risk of JR, AA, and DA, respectively, in patients treated with 1 mg fasinumab Q4W, for patients with different OA burden at different cut-off values for change in alkaline phosphatase. For example, for the 1Q4 treatment arm and in the 1-2 joint subgroup, the JR rate is reduced from 7.4% in the total ISS population, to 6.4% in the 1-2 joint subgroup, to 5.5% in the population below the 20-point alkaline phosphatase cut-off—a difference of 0.4% from the ISS placebo rate (FIG. 8B). Similarly, for the 1Q4 treatment arm and in the 1-2 joint subgroup, the overall AA rate (70-80% RPDA-1) is reduced from 9.2% in the total ISS population, to 7.7% in the 1-2 joint subgroup, to 7.1% in the population below the 20-point alkaline phosphatase cut-off—a difference of 5.6% from the ISS placebo rate (FIG. 8D). Last, the DA rate is reduced from 0.5% in the total ISS population, to 0.3% in the 1-2 joint subgroup, to 0.1% in the population below the 20-point alkaline phosphatase (FIG. 8F).

[4] = system: alkaline phosphatase; conditions: DA patients at all doses; by 16 weeks
Description: Three non-overlapping subgroups are shown: patients without AA, patients with DA and patients with non-DA AAs.

[5] = FACT OA1, Week 16, fasinumab 1 mg Q4W, naproxen 2 × 500 mg/day
[6] = 1Q4, 1-2 joint subgroup, below the 20-point alkaline phosphatase cut-off
[7] = 1Q4, 1-2 joint subgroup, lower cut-offs for change in alkaline phosphatase

Fasinumab: fully-human high-affinity monoclonal antibody directed against NGF; HCVR/LCVR SEQ ID NOs: 2/10
WOMAC pain, change from baseline [1, 5]: −39%
WOMAC pain, change from baseline (score, in brackets) [1, 5]: (−2.48)
WOMAC physical function, change from baseline [1, 5]: −39%
WOMAC physical function, change from baseline (score, in brackets) [1, 5]: (−2.41)
WOMAC physical function, difference vs. placebo ([1]; FACT OA1, Week 16, fasinumab 1 mg Q4W, p = 0.0001): −0.67
WOMAC pain, difference vs. placebo ([1]; FACT OA1, Week 16, fasinumab 1 mg Q4W, p = 0.0003): −0.66
WOMAC physical function, difference vs. naproxen ([1]; FACT OA1, Week 16, fasinumab 1 mg/month vs naproxen 2 × 500 mg/day, nominal p = 0.0006): −0.41
WOMAC pain, difference vs. naproxen ([1]; FACT OA1, Week 16, fasinumab 1 mg/month vs naproxen 2 × 500 mg/day, nominal p = 0.0050): −0.35
co-primary endpoints: pain and physical function compared to placebo ([1]; FACT OA1, fasinumab 1 mg Q4W, p<0.01 for all endpoints): significantly reduced pain and improved physical function compared to placebo
change in WOMAC pain subscale score at 16 weeks compared with placebo [2]: numerically greater improvement compared with placebo
DA rate, difference from placebo rate ([3]; 1 mg Q4W, alkaline phosphatase cut-off of 20): 0.1%
DA rate [3, 6]: 0.1%
JR rate [3, 6]: 5.5%
JR rate, difference from the ISS placebo rate [3, 6]: 0.4%
overall AA rate [3, 6]: 7.1%
overall AA rate, difference from the ISS placebo rate [3, 6]: 5.6%
overall AA rate [3, 7]: 4.6%
overall AA rate, difference from the placebo rate [3, 7]: 2.5%
rates of JR and DA [3, 7]: approximately the placebo rates
DA rate ([3]; 1Q4, total ISS population): 0.5%
JR rate ([3]; 1Q4, total ISS population): 7.4%
overall AA rate ([3]; 1Q4, total ISS population): 9.2%
mean change from baseline in alkaline phosphatase [4]: 20 U/L
